Experiment [1] concerns the target human VEGF (human) (UniProt P15692). The experiment can be described thus: cell-based or functional assay.
For experiment [2] the target is unchanged. The experiment is described as follows: cell-based or functional assay. This is another data set of the same source.
Experiment [3] has as its target LRP6 on HEK293S cells (human) (UniProt O75581). The experiment is described as follows: cell-based or functional assay.
The target in experiment [4] is mouse VEGF (mouse) (UniProt Q00731). The experiment is described as follows: cell-based or functional assay.
For experiment [5], the target named is rat VEGF (rat) (UniProt P16612). The experiment is described as follows: cell-based or functional assay.
The target in experiment [6] is biotinylated VEGF165 (UniProt P15692). The experiment can be described thus: competition binding ELISA: biotinylated VEGF165 premixed with the binder, then on coated VEGFR1-Fc (blocked partner), OD 450 nm.
The target of experiment [7] is mouse VEGF (mouse) (UniProt Q00731). The experiment can be described thus: cell-based or functional assay. The source holds these as a separate data set.
The target of experiment [8] is rat VEGF (rat) (UniProt P16612). The experiment is described as follows: cell-based or functional assay. The source holds these as a separate data set.
Experiment [9] concerns the target biotinylated VEGF165 (UniProt P15692). The experiment can be described thus: competition binding ELISA: blocks biotinylated VEGF165 binding to coated VEGFR1-Fc.

pIC50: −log10 of the molar value. Read-outs that look alike come from different tables or passages of the source.

Experimental findings from patent US20170174733A1 are described below.

human VEGF (human), sequence (P15692 other isoform, or with tags, fused parts or gaps limits assumed): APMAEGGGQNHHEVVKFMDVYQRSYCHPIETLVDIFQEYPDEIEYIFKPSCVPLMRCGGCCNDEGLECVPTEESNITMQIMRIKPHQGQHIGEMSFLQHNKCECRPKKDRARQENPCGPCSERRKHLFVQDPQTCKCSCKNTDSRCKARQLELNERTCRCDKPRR
mouse VEGF (mouse), sequence (Q00731 other isoform, or with tags, fused parts or gaps limits assumed): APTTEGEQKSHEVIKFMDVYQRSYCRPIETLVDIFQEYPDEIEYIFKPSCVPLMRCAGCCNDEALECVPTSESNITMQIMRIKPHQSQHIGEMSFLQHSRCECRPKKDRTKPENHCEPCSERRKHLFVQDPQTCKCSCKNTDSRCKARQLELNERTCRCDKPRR
biotinylated VEGF165, sequence (P15692 other isoform, or with tags, fused parts or gaps limits assumed): as the sequence (P15692 other isoform, or with tags, fused parts or gaps limits assumed) above
rat VEGF (rat), sequence (P16612 other isoform, or with tags, fused parts or gaps limits assumed): as the sequence (Q00731 other isoform, or with tags, fused parts or gaps limits assumed) above, with S10A, I14V, I75V counted along it
LRP6 on HEK293S cells (human), sequence (O75581 20-1613): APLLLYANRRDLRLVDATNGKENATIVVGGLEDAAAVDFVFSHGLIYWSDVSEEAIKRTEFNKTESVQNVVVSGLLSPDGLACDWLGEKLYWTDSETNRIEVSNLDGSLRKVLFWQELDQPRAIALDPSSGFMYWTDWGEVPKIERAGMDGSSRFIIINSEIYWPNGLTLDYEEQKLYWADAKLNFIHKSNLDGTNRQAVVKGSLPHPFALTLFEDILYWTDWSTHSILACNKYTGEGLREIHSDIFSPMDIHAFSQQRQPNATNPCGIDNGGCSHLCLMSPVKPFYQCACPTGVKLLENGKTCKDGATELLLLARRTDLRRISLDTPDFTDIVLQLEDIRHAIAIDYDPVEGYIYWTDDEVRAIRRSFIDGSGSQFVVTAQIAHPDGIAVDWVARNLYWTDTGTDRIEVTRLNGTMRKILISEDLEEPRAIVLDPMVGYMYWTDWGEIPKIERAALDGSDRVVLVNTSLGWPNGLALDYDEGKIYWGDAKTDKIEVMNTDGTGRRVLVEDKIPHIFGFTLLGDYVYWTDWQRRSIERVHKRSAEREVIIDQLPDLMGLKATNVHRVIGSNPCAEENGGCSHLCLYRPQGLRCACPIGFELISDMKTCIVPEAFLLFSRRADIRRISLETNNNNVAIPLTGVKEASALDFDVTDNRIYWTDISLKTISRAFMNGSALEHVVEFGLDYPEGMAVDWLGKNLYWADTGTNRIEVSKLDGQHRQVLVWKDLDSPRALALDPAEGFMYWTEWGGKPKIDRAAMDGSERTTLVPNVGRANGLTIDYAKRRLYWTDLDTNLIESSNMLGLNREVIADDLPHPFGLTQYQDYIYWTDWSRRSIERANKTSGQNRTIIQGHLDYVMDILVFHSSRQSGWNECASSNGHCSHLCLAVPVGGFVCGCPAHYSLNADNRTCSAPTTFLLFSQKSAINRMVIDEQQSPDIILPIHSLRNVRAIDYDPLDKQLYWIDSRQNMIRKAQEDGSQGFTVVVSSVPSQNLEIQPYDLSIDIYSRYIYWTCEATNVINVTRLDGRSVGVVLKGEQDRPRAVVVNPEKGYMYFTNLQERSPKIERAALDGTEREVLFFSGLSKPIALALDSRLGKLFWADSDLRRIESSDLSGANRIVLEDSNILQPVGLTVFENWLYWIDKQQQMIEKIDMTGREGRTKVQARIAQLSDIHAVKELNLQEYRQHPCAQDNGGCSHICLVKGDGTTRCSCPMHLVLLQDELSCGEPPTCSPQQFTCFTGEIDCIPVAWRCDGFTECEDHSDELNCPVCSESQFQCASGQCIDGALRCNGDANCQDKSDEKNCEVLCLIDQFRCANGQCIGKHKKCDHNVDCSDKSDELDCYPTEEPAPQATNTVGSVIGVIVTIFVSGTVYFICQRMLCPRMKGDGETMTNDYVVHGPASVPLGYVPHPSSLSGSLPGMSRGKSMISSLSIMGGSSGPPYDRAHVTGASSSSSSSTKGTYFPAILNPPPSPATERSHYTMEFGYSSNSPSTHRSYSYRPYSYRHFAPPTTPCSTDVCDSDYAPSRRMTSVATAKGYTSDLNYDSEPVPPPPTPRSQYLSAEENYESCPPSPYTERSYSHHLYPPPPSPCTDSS

In experiment [1], Lucentis (Fab) had an Inhibitory Activity (IC50, nM) against hVEGF in cell-based assays of 0.68 nM. This substance gave an Inhibitory activity (IC50, nM) against VEGF in cell-based assays in experiment [2] of 0.63 nM.
anti-LRP6 inhibitory antibody YW210.09: the IC50, inhibition of Wnt1 signaling (luciferase reporter, HEK293S cells transfected by WNT1) in experiment [3] turned out to be 28000 pM.
As for G6 anti-VEGF antibody, the Inhibitory activity (IC50, nM) against VEGF in cell-based assays in experiment [4] was found to be 0.12 nM; in [5] it was 0.13 nM; in experiment [1] it was 0.21 nM; in experiment [7], 0.19 nM; in experiment [8], 0.078 nM. In [1], this substance came in with an Inhibitory Activity (IC50, nM) against hVEGF in cell-based assays of 0.14 nM. Moreover, the pIC50 is 9.70 in [6] and 9.60 in experiment [9].
